Results: publication PMC4600444

Biological target: Xis2d protein of CTnDOT (Bacteroides spp. (conjugative transposon CTnDOT))
Test: SEC

stoichiometry N: 2
Substance: Xis2d protein of CTnDOT (natural protein)
